Experimental data taken from publication PMC3747075.

Target: human DNM1L GTPase-GED (GG) fusion protein (human) (UniProt O00429)
Assay: SEC; 60 µM protein incubated 30 min at 37°C with 2 mM GDP or GTP, 20 mM NaF and 2 mM AlCl3 (transition state mimic GDP/AlF4-); 20 mM Tris/HCl pH 8.0, 150 mM NaCl, 2 mM EGTA, 4 mM MgCl2, 1 mM DTT; Superdex S 75 HR 10/300; dimer at 9.5 ml, monomer at 11 ml

stoichiometry N: 2
Substance: human DNM1L GTPase-GED (GG) fusion protein (from UniProt O00429 1-325) (domain or fragment)
